Literature values as cited in article PMC12020373.

How the values were obtained:
Cys124 = Cys124 (UniProt position 125, HPGDFCADAQG)
Cys215 = Cys215 (UniProt position 215, PVVVHCSAGIG)
Cys88 = Cys88 (UniProt position 88, ADGSICLDILQ)
His113 [1] = target: His113 (UniProt position 114, SDAIIHVLHSK)
His116 [2] = target: His116 (UniProt position 117, IIHVLHSKHPG)
His119 = His119 (UniProt position 120, VLHSKHPGDFG)
His36 [3] = target: His36 (UniProt position 37, RLFTGHPETLE)
His81 = His81 (UniProt position 82, LKKKGHHEAEL)
Cys126 = Cys126 (UniProt position 127, GDFGACAQGAM)
Cys283 [4] = target: Cys283 (UniProt position 283, GYVLTCPSNLG)
His31 = His31 (UniProt position 31, TIGIGHLLTKS)
His124 = His124 (UniProt position 124, EWVKGHAGHPE)
His127 = His127 (UniProt position 127, KGHAGHPENER)
His62 = His62 (UniProt position 62, EALKEHCEVIL)
His83 = His83 (UniProt position 83, ITQWIHNWKKR)
Cys46 [5] = target: Cys46 (UniProt position 47, DFTFVCPTELG)
His113 [6] = target: His113 (UniProt position 114, SEAIIHVLHSR)
His116 [7] = target: His116 (UniProt position 117, IIHVLHSRHPG)
His12 = His12 (UniProt position 13, WQLVLHVWAKV)
His36 [8] = target: His36 (UniProt position 37, RLFKSHPETLE)
His48 = His48 (UniProt position 49, FDRFKHLKTEA)
Cys46 [9] = target: Cys46 (UniProt position 47, TERPGCLDFKG)
Cys106 = Cys106 (UniProt position 106, LIAAICAGPTA)
Cys32 [10] = target: Cys32 (UniProt position 33, FWAEWCGPCKM)
His46 = His46 (UniProt position 128, TPETKHPKKGV)
His8 = His8 (UniProt position 90, STKKLHKEPAT)
Cys32 [11] = target: Cys32 (UniProt position 32, FSATWCGPCKM)
His43 = His43 (UniProt position 43, IKPFFHSLSEK)
Cys17 = Cys17 (UniProt position 18, VKHLKCKPADE)
Cys78 = Cys78 (UniProt position 79, YIDKVCELKKK)
Cys145 = Cys145 (UniProt position 145, PILIPCHRVVC)
Cys283 [12] = target: Cys283 (UniProt position 283, GYVLTCPANLG)
Cys65 = Cys65 (UniProt position 66, ELKGTCKEDAM)
Cys40 = Cys40 (UniProt position 40, FSASWCPPCRG)
Cys125 = Cys125 (UniProt position 126, PGDFGCDAQGA)
Cys403 = Cys403 (UniProt position 403, RPVIHCRAGVG)
Cys25 [13] = target: Cys25 (UniProt position 158, GSCGSCWAFSA)
Cys25 [14] = target: Cys25 (UniProt position 157, GSCGSCWAFSA)
Cys36 = Cys36 (UniProt position 37, YKQATCGDINT)
Cys29 = Cys29 (UniProt position 108, GSCGSCWAFGA)

For “myoglobin G124C (Physeter macrocephalus (sperm whale); G124C)”, the pKa (Cys124) is listed as 6.5.

For “methionine sulfoxide reductase A (MsrA) (Mus musculus)”, the pKa (Cys51) is given as 7.2.

In the case of “protein-tyrosine phosphatase 1B / PTP1 (Homo sapiens for the listed structure; the pKa source title says only 'mammalian' PTP1)”, the pKa (Cys215) is given as 5.6.

For “ubiquitin-conjugating enzyme E2 (PDB 1JAS; HsUbc2b) (Homo sapiens (inferred))”, the pKa (Cys88) is given as 10.2.

In the case of “myoglobin (PDB 1DWR) (Equus caballus (horse; inferred))”, the pKa (His113 [1]) is listed as 5.87, the pKa (His116 [2]) is listed as 6.79 and the pKa (His119) is listed as 6.56. For the same substance, the pKa (His36 [3]) was 7.8 and the pKa (His81) was 6.94.

For alpha1-antitrypsin (Homo sapiens), the pKa (Cys210) is listed as 6.9.

In the case of “thiol:disulfide interchange protein DsbA (Escherichia coli (inferred))”, the pKa (Cys28) is given as 3.3.

For “myoglobin D126C (Physeter macrocephalus (sperm whale); D126C)”, the pKa (Cys126) is listed as 8.1.

In the case of “ubiquitin-conjugating enzyme Ubc13 (PDB 1JBB) (Saccharomyces cerevisiae (inferred))”, the pKa (Cys85) is given as 11.1.

For muscle creatine kinase (Homo sapiens), the pKa (Cys283 [4]) is listed as 5.6.

In the case of “T4 lysozyme (PDB 2LZM) (Enterobacteria phage T4 (inferred))”, the pKa (His31) is listed as 9.1.

For ribonuclease HI (Escherichia coli), the pKa (His124) is listed as 7.1, the pKa (His127) is listed as 7.9 and the pKa (His62) is listed as 7.0. The pKa (His83) was 5.5.

For “alkyl hydroperoxide reductase C (peroxiredoxin AhpC) (Salmonella enterica serovar Typhimurium (inferred; article says only 'bacterial'))”, the pKa (Cys46 [5]) is given as 5.9.

For “thiol-disulfide oxidoreductase ResA (Bacillus subtilis (inferred))”, the pKa (Cys35) is listed as 8.8.

In the case of “myoglobin (PDB 1A6K) (Physeter macrocephalus (sperm whale; inferred))”, the pKa (His113 [6]) is given as 5.51, the pKa (His116 [7]) is given as 6.70 and the pKa (His12) is given as 6.49. The pKa (His36 [8]) was 7.98, the pKa (His48) was 5.55 and the pKa (His81) was 6.88.

For “acyl-CoA-binding protein (PDB 1NTI) M46C (Bos taurus (inferred); M46C)”, the pKa (Cys46 [9]) is listed as 8.2.

In the case of DJ-1 (PARK7) (Homo sapiens), the pKa (Cys106) is given as 5.4.

In the case of thioredoxin (Escherichia coli), the pKa (Cys32 [10]) is given as 7.3.

In the case of “staphylococcal nuclease (PDB 1EY0) (Staphylococcus aureus (inferred))”, the pKa (His46) is given as 5.86 and the pKa (His8) is given as 6.52.

For thioredoxin (Homo sapiens), the pKa (Cys32 [11]) is given as 6.3 and the pKa (His43) is given as 5.5.

In the case of “acyl-CoA-binding protein (PDB 1NTI) T17C (Bos taurus (inferred); T17C)”, the pKa (Cys17) is given as 9.8.

In the case of “acyl-CoA-binding protein (PDB 1NTI) E78C (Bos taurus (inferred); E78C)”, the pKa (Cys78) is given as 9.6.

In the case of “O6-alkylguanine-DNA alkyltransferase (AGT/MGMT) (Homo sapiens)”, the pKa (Cys145) is given as 5.3.

For “methionine sulfoxide reductase A E115Q (Mus musculus; E115Q)”, the pKa (Cys51) is listed as 8.2.

In the case of “muscle creatine kinase S285A (Homo sapiens; S285A)”, the pKa (Cys283 [12]) is listed as 6.7.

For “acyl-CoA-binding protein (PDB 1NTI) S65C (Bos taurus (inferred); S65C)”, the pKa (Cys65) is given as 9.0.

In the case of “tryparedoxin (Trypanosoma brucei (inferred from PDB 1O73))”, the pKa (Cys40) is given as 7.2.

In the case of “myoglobin A125C (Physeter macrocephalus (sperm whale); A125C)”, the pKa (Cys125) is given as 8.4.

For “protein tyrosine phosphatase YopH (Yersinia (species not stated; Y. enterocolitica for 1YPT to my knowledge))”, the pKa (Cys403) is listed as 4.7.

For papain (Carica papaya), the pKa (Cys25 [13]) is given as 3.3.

In the case of “caricain (papaya protease omega) (Carica papaya)”, the pKa (Cys25 [14]) is listed as 2.9.

In the case of “acyl-CoA-binding protein (PDB 1NTI) V36C (Bos taurus (inferred); V36C)”, the pKa (Cys36) is given as 9.5.

In the case of cathepsin B (Rattus norvegicus), the pKa (Cys29) is given as 3.6.

For “ubiquitin-conjugating enzyme UbcH10 (Homo sapiens)”, the pKa (Cys85) is listed as 10.9.
